In PMC7060239, “Two distinct modes of DNMT1 recruitment ensure stable maintenance DNA methylation” (Nature Communications, 2020):

T1: PHD finger of human UHRF1 (residues 299–366) (human, UniProt Q96T88 299-366)
T1 construct: UHRF1, human, PHD finger, residues 299–366; also called hPHD; UHRF1 PHD finger; source: recombinant, purified (glutathione Sepharose 4B, HiTrap Q HP, Superdex75); not shown: GST, N-terminal, cleaved; SUMO-1, N-terminal, cleaved
T1 sequence (looked up): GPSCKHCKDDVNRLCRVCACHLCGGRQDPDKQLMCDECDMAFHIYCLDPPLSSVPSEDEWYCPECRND


Target: T1, PHD finger of human UHRF1 (residues …)
Assay: ITC; hPHD and PAF15_(2-11) or H3 peptides; VP-ITC; 10 mM HEPES-NaOH (pH 7.5), 150 mM NaCl, 0.25 mM TCEP; one-site model
Conditions: both partners purified

Binder	Kd [nM]	binding result
ARTKQTARKST (Unmodified free N-terminus assumed (initiator Met removed). Peptide limits are not printed in the supplied text (ITC in Supplementary Fig. 2d). Mature H3 residues 1-11 taken by convention from UHRF1 …) [N-terminal histone H3 peptide]	1500 ± 100	
VRTKADSVPG (peptide, UniProt Q15004 2-11, looked up, PCNA-associated factor 15 (PAF15), human, residues 2–11; begins with 2VRTK5; also called hPAF15_(2-11); PAF15_(2-11); source: synthetic peptide (Toray Research Center)) [human PAF15 (residues 2–11) peptide]	2200 ± 300	
VRTAADSVPG (peptide, UniProt Q15004 2-11, looked up, PCNA-associated factor 15 (PAF15), human, residues 2–11; also called PAF15 K5A) [hPAF15_(2-11)-K5A peptide]		binds
